From the supplement of paper PMC12855868

B1: library; numbered along this chain (parent)
chain: MAAAGGARLLRAASAVLGGPAGRWLHHAGSRAGSSGLLRNRGPGGSAEASRSLSVSARARSSSEDKITVHFINRDGETLTTKGKVGDSLLDVVVENNLDIDGFGACEGTLACSTCHLIFEDHIYEKLDAITDEENDMLDLAYGLTDRSRLGCQICLTKSMDNMTVRVPETVADARQSIDVGKTS

Variants of: B1
Test: scaled log2 fold change in cell abundance, elesclomol vs control (0 = silent mean, 1 = nonsense mean) (scaled log2 ratio); higher = higher viability under elesclomol (loss of FDX1 cuproptosis function)
Conditions: glucose 10 mM
[1] = with ABC1 FDX1 KO, elesclomol 5 nM, 14 days
[2] = with HEK293T FDX1 KO, elesclomol 40 nM, 11 days
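Note: variant abundance is its share of total variant reads in each endpoint sample, from next-generation sequencing of the integrated ORF PCR-amplified out of genomic DNA.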

M160W
scaled log2 fold change [1]: 0.366
scaled log2 fold change [2]: -0.0391

M160L
scaled log2 fold change [1]: -0.304

M160R
scaled log2 fold change [1]: 0.249
scaled log2 fold change [2]: 0.049

M160Y
scaled log2 fold change [1]: 0.274
scaled log2 fold change [2]: 0.713

M160C
scaled log2 fold change [1]: -0.675
scaled log2 fold change [2]: -0.515

M160N
scaled log2 fold change [1]: 0.245
scaled log2 fold change [2]: -0.0466

M160A
scaled log2 fold change [1]: 0.233
scaled log2 fold change [2]: -0.241

M160I
scaled log2 fold change [1]: 0.353
scaled log2 fold change [2]: 0.63

M160K
scaled log2 fold change [1]: -0.0408
scaled log2 fold change [2]: 1.28

M160G
scaled log2 fold change [1]: 0.381
scaled log2 fold change [2]: 0.247

M160P
scaled log2 fold change [1]: 1.06
scaled log2 fold change [2]: 1.11

M160Q
scaled log2 fold change [1]: 0.0622
scaled log2 fold change [2]: 0.682

M160S
scaled log2 fold change [1]: 0.278
scaled log2 fold change [2]: 0.0347

M160D
scaled log2 fold change [1]: -0.132
scaled log2 fold change [2]: 0.103

M160H
scaled log2 fold change [1]: -0.251
scaled log2 fold change [2]: 0.0298

M160V
scaled log2 fold change [1]: -0.27

M160E
scaled log2 fold change [1]: 0.143
scaled log2 fold change [2]: -0.299

M160T
scaled log2 fold change [1]: 0.347
scaled log2 fold change [2]: 0.674

M160F
scaled log2 fold change [1]: 0.0868
scaled log2 fold change [2]: 0.149

L150R
scaled log2 fold change [1]: 1.05
scaled log2 fold change [2]: 0.41

L150Q
scaled log2 fold change [1]: 0.537
scaled log2 fold change [2]: 0.364

L150T
scaled log2 fold change [1]: 0.595
scaled log2 fold change [2]: -0.16

L150N
scaled log2 fold change [1]: 0.899
scaled log2 fold change [2]: 0.249

L150A
scaled log2 fold change [1]: 0.335
scaled log2 fold change [2]: 0.397

L150G
scaled log2 fold change [1]: 0.757
scaled log2 fold change [2]: 0.513

L150S
scaled log2 fold change [1]: 0.479
scaled log2 fold change [2]: 0.331

L150P
scaled log2 fold change [1]: 1.09
scaled log2 fold change [2]: 0.82

L150W
scaled log2 fold change [1]: 1.06
scaled log2 fold change [2]: 1.11

L150K
scaled log2 fold change [1]: 1.24
scaled log2 fold change [2]: 1.51

L150H
scaled log2 fold change [1]: 0.563
scaled log2 fold change [2]: -0.201

L150Y
scaled log2 fold change [1]: 0.721
scaled log2 fold change [2]: 0.392

L150M
scaled log2 fold change [1]: -0.0616
scaled log2 fold change [2]: -0.103

L150E
scaled log2 fold change [1]: 0.981
scaled log2 fold change [2]: 1.27

L150V
scaled log2 fold change [1]: 0.447
scaled log2 fold change [2]: -0.147

L150F
scaled log2 fold change [1]: 0.244
scaled log2 fold change [2]: -0.211

L150D
scaled log2 fold change [1]: 1.09
scaled log2 fold change [2]: 0.982

L150I
scaled log2 fold change [1]: 0.2
scaled log2 fold change [2]: -0.337

L150C
scaled log2 fold change [1]: -0.0973
scaled log2 fold change [2]: 0.196

G151N
scaled log2 fold change [1]: 1.12
scaled log2 fold change [2]: 1.08

G151S
scaled log2 fold change [1]: 0.0704
scaled log2 fold change [2]: -0.359

G151T
scaled log2 fold change [1]: 0.645
scaled log2 fold change [2]: 0.96

G151V
scaled log2 fold change [1]: 0.707
scaled log2 fold change [2]: -0.147

G151Y
scaled log2 fold change [1]: 1.15
scaled log2 fold change [2]: 1.08

G151R
scaled log2 fold change [1]: 1.11
scaled log2 fold change [2]: 0.946

G151M
scaled log2 fold change [1]: 1.01
scaled log2 fold change [2]: 1.15

G151E
scaled log2 fold change [1]: 1.06
scaled log2 fold change [2]: 1.01

G151C
scaled log2 fold change [1]: 0.338
scaled log2 fold change [2]: -0.416

G151P
scaled log2 fold change [1]: 1.03
scaled log2 fold change [2]: 1.12

G151F
scaled log2 fold change [1]: 1.04
scaled log2 fold change [2]: 1.32

G151H
scaled log2 fold change [1]: 1.27
scaled log2 fold change [2]: 1.31

G151L
scaled log2 fold change [1]: 1
scaled log2 fold change [2]: 0.743

G151Q
scaled log2 fold change [1]: 1.11
scaled log2 fold change [2]: 1.05

G151W
scaled log2 fold change [1]: 1.06
scaled log2 fold change [2]: 1.38

G151K
scaled log2 fold change [1]: 1.04
scaled log2 fold change [2]: 0.728

G151A
scaled log2 fold change [1]: 0.241
scaled log2 fold change [2]: 0.25

G151I
scaled log2 fold change [1]: 1.07
scaled log2 fold change [2]: 0.797

G151D
scaled log2 fold change [1]: 1.22
scaled log2 fold change [2]: 1.19

S159D
scaled log2 fold change [1]: -1.07
scaled log2 fold change [2]: -0.414

S159L
scaled log2 fold change [1]: -0.241
scaled log2 fold change [2]: 0.847

S159C
scaled log2 fold change [1]: 0.095
scaled log2 fold change [2]: -0.0429

S159F
scaled log2 fold change [1]: -0.798
scaled log2 fold change [2]: 0.523

S159P
scaled log2 fold change [1]: -1.13
scaled log2 fold change [2]: -0.284

S159W
scaled log2 fold change [1]: 0.0873
scaled log2 fold change [2]: 0.215

S159R
scaled log2 fold change [1]: -0.282
scaled log2 fold change [2]: 0.159

S159Q
scaled log2 fold change [1]: -0.52

S159V
scaled log2 fold change [1]: 0.225
scaled log2 fold change [2]: 0.738

S159M
scaled log2 fold change [1]: -0.149
scaled log2 fold change [2]: -0.209

S159T
scaled log2 fold change [1]: -0.475
scaled log2 fold change [2]: 0.754

S159G
scaled log2 fold change [1]: -1.03
scaled log2 fold change [2]: -0.767

S159E
scaled log2 fold change [1]: -0.499
scaled log2 fold change [2]: -0.34

S159Y
scaled log2 fold change [1]: -0.0652
scaled log2 fold change [2]: -0.463

S159I
scaled log2 fold change [1]: -0.459
scaled log2 fold change [2]: 0.0583

S159H
scaled log2 fold change [1]: -0.58
scaled log2 fold change [2]: 0.214

S159K
scaled log2 fold change [1]: 0.382
scaled log2 fold change [2]: -0.162

S159N
scaled log2 fold change [1]: 0.273
scaled log2 fold change [2]: -0.128

S159A
scaled log2 fold change [1]: 0.168
scaled log2 fold change [2]: -0.0471

N162E
scaled log2 fold change [1]: 0.0612
scaled log2 fold change [2]: 0.838

N162A
scaled log2 fold change [1]: 0.23
scaled log2 fold change [2]: 0.844

N162D
scaled log2 fold change [1]: -0.354
scaled log2 fold change [2]: 0.0725

N162C
scaled log2 fold change [1]: -0.275
scaled log2 fold change [2]: 0.0594

N162F
scaled log2 fold change [1]: 0.167
scaled log2 fold change [2]: -0.244

Q153V
scaled log2 fold change [1]: -0.0289
scaled log2 fold change [2]: 0.299

Q153T
scaled log2 fold change [1]: 0.212
scaled log2 fold change [2]: -0.179

Q153P
scaled log2 fold change [1]: 0.884
scaled log2 fold change [2]: 0.923

Q153D
scaled log2 fold change [1]: 0.674
scaled log2 fold change [2]: 0.615

Q153K
scaled log2 fold change [1]: 0.016
scaled log2 fold change [2]: 0.139

Q153N
scaled log2 fold change [1]: -0.0628
scaled log2 fold change [2]: 0.314

Q153L
scaled log2 fold change [1]: 0.241
scaled log2 fold change [2]: -0.00657

Q153M
scaled log2 fold change [1]: -0.153
scaled log2 fold change [2]: -0.595

Q153W
scaled log2 fold change [1]: 0.543
scaled log2 fold change [2]: 0.414

Q153R
scaled log2 fold change [1]: -0.0672
scaled log2 fold change [2]: 1.14

Q153E
scaled log2 fold change [1]: 0.283
scaled log2 fold change [2]: 1.2

Q153H
scaled log2 fold change [1]: 0.41
scaled log2 fold change [2]: -0.0151

Q153I
scaled log2 fold change [1]: 0.0471
scaled log2 fold change [2]: -0.458

Q153S
scaled log2 fold change [1]: 0.243
scaled log2 fold change [2]: 0.372

Q153C
scaled log2 fold change [1]: -0.163
scaled log2 fold change [2]: -0.668

Q153Y
scaled log2 fold change [1]: 0.621
scaled log2 fold change [2]: 0.0427

Q153A
scaled log2 fold change [1]: 0.0247
scaled log2 fold change [2]: -0.209

Q153G
scaled log2 fold change [1]: 0.48
scaled log2 fold change [2]: -0.652

Q153F
scaled log2 fold change [1]: 0.595
scaled log2 fold change [2]: 0.361

R149W
scaled log2 fold change [1]: 1.07
scaled log2 fold change [2]: 1.1

R149Y
scaled log2 fold change [1]: 0.871
scaled log2 fold change [2]: 0.839

C155E
scaled log2 fold change [1]: -0.828
scaled log2 fold change [2]: -0.236

C155D
scaled log2 fold change [1]: 0.24
scaled log2 fold change [2]: -1.76

C155S
scaled log2 fold change [1]: 0.114
scaled log2 fold change [2]: -0.635

C155W
scaled log2 fold change [1]: -0.0475
scaled log2 fold change [2]: 0.246

C155N
scaled log2 fold change [1]: -0.0685

C155M
scaled log2 fold change [1]: 0.338
scaled log2 fold change [2]: 0.969

C155Q
scaled log2 fold change [1]: 0.507

C155K
scaled log2 fold change [1]: -0.165
scaled log2 fold change [2]: 6.73e-05

C155I
scaled log2 fold change [1]: 0.0211
scaled log2 fold change [2]: -0.117

C155P
scaled log2 fold change [1]: 0.0631
scaled log2 fold change [2]: 0.21

C155V
scaled log2 fold change [1]: -0.17
scaled log2 fold change [2]: -0.185

C155H
scaled log2 fold change [1]: -1.03
scaled log2 fold change [2]: -0.48

C155F
scaled log2 fold change [1]: -0.0473
scaled log2 fold change [2]: -0.0932

C155R
scaled log2 fold change [1]: -0.248
scaled log2 fold change [2]: -1.26

C155T
scaled log2 fold change [1]: -0.251
scaled log2 fold change [2]: -0.435
